Measured values taken from PMC3419264, “ATPase Site Architecture Is Required for Self-Assembly and Remodeling Activity of a Hexameric AAA+ Transcriptional Activator” (Molecular Cell, 2012).

System: T1, Nc1ncnc2c1ncn2[C@@H]1O[C@H](COP(=O)(O)OP(=O)(O)OP(=O)(O)O)[C@@H](O)[C@H]1O
T1 construct: AAA+ domain, residues 1-275; purified as in Joly et al. 2006; hexamer
Assay: steady-state ATPase assay, NADH-coupled regeneration system
Type: biochemical, Escherichia coli
Conditions: 37 °C, without σ54, turnover given as Vmax (min^-1), maximal error 10%
Text: steady-state ATPase assay, NADH-coupled regeneration system on PspF1-275

| Substance | Km | kcat |
| --- | --- | --- |
| PspF1-275 (Escherichia coli K-12; E43A) | 750 µM | 0.0228 ± 0.00167 s⁻¹ |
| PspF1-275 (Escherichia coli K-12; E43D) | 250 µM | 0.371 ± 0.08 s⁻¹ |
| PspF1-275 (Escherichia coli K-12; E43Y) | 1,250 μM | 0.0415 ± 0.00283 s⁻¹ |
| PspF1-275 (Escherichia coli K-12; E118D) | 800 µM | 0.3372 ± 0.0617 s⁻¹ |
| PspF1-275 (Escherichia coli K-12; L9A) | 2,300 μM | 0.3453 ± 0.0425 s⁻¹ |
| PspF1-275 (Escherichia coli K-12; L44A) | 310 µM | 0.3027 ± 0.0403 s⁻¹ |
| PspF1-275 (Escherichia coli K-12; R122A) | 300 µM | 0.021 ± 0.0005 s⁻¹ |
| PspF1-275 (Escherichia coli K-12; R162A) | 90 µM | 0.003 ± 0.00033 s⁻¹ |
| PspF1-275 (Escherichia coli K-12; R162K) | 200 µM | 0.0313 ± 0.00483 s⁻¹ |
| PspF1-275 (Escherichia coli K-12; Y126A) | 650 µM | 0.1992 ± 0.0295 s⁻¹ |
